From US20260374828 (published 2026)
Where no end group is shown, it is not given here. [ ]: non-standard residue; d: D form.

Target: Keap1 Kelch domain (UniProt Q14145)
Assay: other TR-FRET

Keap1 Kelch domain, sequence (Q14145 whole entry, the tested form may be a part): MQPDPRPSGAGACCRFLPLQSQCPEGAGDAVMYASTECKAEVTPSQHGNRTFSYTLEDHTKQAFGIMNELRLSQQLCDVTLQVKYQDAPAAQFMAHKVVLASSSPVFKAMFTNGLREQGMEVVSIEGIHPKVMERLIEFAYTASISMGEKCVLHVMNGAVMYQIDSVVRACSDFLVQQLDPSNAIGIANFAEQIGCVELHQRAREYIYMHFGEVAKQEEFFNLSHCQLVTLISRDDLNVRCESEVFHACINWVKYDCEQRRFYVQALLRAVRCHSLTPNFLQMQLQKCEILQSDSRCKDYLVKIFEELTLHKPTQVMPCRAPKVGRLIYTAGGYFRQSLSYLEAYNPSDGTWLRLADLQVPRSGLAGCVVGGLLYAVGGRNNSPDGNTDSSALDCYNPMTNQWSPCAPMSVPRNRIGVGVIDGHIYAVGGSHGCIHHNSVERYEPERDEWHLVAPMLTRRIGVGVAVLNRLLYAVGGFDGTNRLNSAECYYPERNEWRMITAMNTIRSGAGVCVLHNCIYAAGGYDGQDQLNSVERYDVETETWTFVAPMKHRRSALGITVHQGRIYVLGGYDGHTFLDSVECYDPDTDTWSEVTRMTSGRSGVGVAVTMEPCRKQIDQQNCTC

Binder	IC50
RRDELEPLTGFRR (also: polynorbornene brush polymer conjugate, multivalent) [PLP 1-3]	0.12 nM
Ac-DELEPLTGFRR[dR][dR]-NH2 (SMILES CC(=O)N[C@@H](CC(=O)O)C(=O)N[C@@H](CCC(=O)O)C(=O)N[C@@H](CC(C)C)C(=O)N[C@@H](CCC(=O)O)C(=O)N1CCC[C@H]1C(=O)N[C@@H](CC(C)C)C(=O)N[C@H](C(=O)NCC(=O)N[C@@H](Cc1ccccc1)C(=O)N[C@@H](CCCNC(=N)N)C(=O)N[C@@H](CCCNC(=N)N)C(=O)N[C@H](CCCNC(=N)N)C(=O)N[C@H](CCCNC(=N)N)C(N)=O)[C@@H](C)O) [Peptide 1-13]	8.8 nM
DELEPLTGF[dR][dR]RR (also: polynorbornene brush polymer conjugate, multivalent) [PLP 1-12]	0.17 nM
Ac-DELEPLTGF[dR][dR]RR-NH2 (SMILES CC(=O)N[C@@H](CC(=O)O)C(=O)N[C@@H](CCC(=O)O)C(=O)N[C@@H](CC(C)C)C(=O)N[C@@H](CCC(=O)O)C(=O)N1CCC[C@H]1C(=O)N[C@@H](CC(C)C)C(=O)N[C@H](C(=O)NCC(=O)N[C@@H](Cc1ccccc1)C(=O)N[C@H](CCCNC(=N)N)C(=O)N[C@H](CCCNC(=N)N)C(=O)N[C@@H](CCCNC(=N)N)C(=O)N[C@@H](CCCNC(=N)N)C(N)=O)[C@@H](C)O) [Peptide 1-12]	13.3 nM
